Test results: patent publication US20240084003A1 (SIMCERE ZAIMING PHARMACEUTICAL, published 2024)

Experiments:
[1] = target: T1, CD22 on cynomolgus monkey peripheral blood B cells (cynomolgus monkey (Macaca fascicularis)); assay: FACS, cynomolgus PBMC, CD20+ B cells, antibody 10 nM
T1 construct: whole, on cells; also called cynomolgus monkey B cells
Text: (§1) The monkey peripheral blood mononuclear cells were extracted from fresh cynomolgus monkey peripheral blood (purchased from Shanghai Medicilon Inc.) according to the instructions of Ficoll-Paque Plus (purchased from GE Healthcare, catalog number: 171440-02). After the cell suspension was centrifuged, the cells were resuspended in PBS containing 1% BSA, and then the cells were counted. At the same time, the murine antibody Brilliant Violet 605 anti-human CD20 (catalog number: 302334, purchased from Biolegend) with monkey CD20 cross-binding activity and the chimeric antibodies to be tested (1 nM, 10 nM and 100 nM) were added and incubated at room temperature for 1 hour. After washing the cells three times, APC-labeled secondary antibody anti-human IgG Fc (catalog number: 409306, purchased from Biolegend) was added. After incubation at room temperature in the dark for 30 minutes, the cells were washed 5 times, gently resuspended with PBS containing 1% BSA, and detected and analyzed by FACS (FACS Canto™, purchased from BD Company). Wherein CD20 was used as a marker of B cells, and the CD20-positive B cell population was gated, the proportion of chimeric antibody positive cells was analyzed, and the proportion of chimeric antibody positive cell population to B cell population was calculated after treatments with the chimeric antibodies at the concentrations of 100 nM, 10 nM and 1 nM, respectively. The scatter plot of double-stained cells by Brilliant Violet 605-labeled CD20 and APC secondary antibody indirectly labeled chimeric antibody is shown in FIG. 10A-FIG. 10B (under the condition of 1 nM of chimeric antibody concentration).

[2] = target: T1, CD22 on cynomolgus monkey peripheral …; assay: FACS, cynomolgus PBMC, CD20+ B cells, antibody 1 nM
Text: as §1

[3] = target: T1, CD22 on cynomolgus monkey peripheral …; assay: FACS, cynomolgus PBMC, CD20+ B cells, antibody 100 nM
Text: as §1

[4] = target: T2, human CD22, endogenous on Raji cells (human, UniProt P20273 20-847); assay: FACS, Raji cells
T2 construct: whole, on cells; Endogenous protein of the Raji cell line
T2 sequence (looked up): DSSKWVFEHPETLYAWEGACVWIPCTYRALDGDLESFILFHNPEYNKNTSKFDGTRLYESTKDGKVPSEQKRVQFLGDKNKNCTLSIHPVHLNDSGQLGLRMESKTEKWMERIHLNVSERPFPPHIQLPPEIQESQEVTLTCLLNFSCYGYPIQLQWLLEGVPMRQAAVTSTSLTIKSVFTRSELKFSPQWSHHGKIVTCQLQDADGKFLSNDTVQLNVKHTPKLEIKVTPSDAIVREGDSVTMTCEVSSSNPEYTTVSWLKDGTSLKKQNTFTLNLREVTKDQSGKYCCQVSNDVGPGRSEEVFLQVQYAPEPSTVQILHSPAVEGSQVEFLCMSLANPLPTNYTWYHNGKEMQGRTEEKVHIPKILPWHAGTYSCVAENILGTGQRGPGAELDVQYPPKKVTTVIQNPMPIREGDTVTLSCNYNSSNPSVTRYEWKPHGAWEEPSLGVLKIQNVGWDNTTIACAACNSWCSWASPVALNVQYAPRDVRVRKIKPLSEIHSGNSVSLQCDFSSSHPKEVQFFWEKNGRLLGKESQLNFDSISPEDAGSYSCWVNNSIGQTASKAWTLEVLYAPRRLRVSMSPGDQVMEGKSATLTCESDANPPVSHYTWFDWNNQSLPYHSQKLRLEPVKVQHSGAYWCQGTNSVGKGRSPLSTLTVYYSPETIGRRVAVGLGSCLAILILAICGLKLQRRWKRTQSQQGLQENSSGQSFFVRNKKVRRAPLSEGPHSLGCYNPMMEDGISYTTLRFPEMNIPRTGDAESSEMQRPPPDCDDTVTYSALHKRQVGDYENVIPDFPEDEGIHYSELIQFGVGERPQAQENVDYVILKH
In short: (§2)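 Raji cells and CHO-K1 cells expressing human CD22 were blocked in PBS + 2% BSA at 2×10⁶ cells/ml and incubated with chimeric antibody for 2 h on ice. Bound antibody was detected with an Alexa Fluor 488 secondary for 1 h on ice and read by flow cytometry as MFI. EC50 came from curve fitting.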

[5] = target: T3, murine CD22 protein (ACROBiosystems, SI2-M52Ha) (murine, UniProt P35329 22-708); assay: ELISA, coated murine CD22, 100 nM Ab
T3 construct: extracellular domain; also called murine CD22-ECD; murine CD22-ECD-His
T3 sequence (looked up): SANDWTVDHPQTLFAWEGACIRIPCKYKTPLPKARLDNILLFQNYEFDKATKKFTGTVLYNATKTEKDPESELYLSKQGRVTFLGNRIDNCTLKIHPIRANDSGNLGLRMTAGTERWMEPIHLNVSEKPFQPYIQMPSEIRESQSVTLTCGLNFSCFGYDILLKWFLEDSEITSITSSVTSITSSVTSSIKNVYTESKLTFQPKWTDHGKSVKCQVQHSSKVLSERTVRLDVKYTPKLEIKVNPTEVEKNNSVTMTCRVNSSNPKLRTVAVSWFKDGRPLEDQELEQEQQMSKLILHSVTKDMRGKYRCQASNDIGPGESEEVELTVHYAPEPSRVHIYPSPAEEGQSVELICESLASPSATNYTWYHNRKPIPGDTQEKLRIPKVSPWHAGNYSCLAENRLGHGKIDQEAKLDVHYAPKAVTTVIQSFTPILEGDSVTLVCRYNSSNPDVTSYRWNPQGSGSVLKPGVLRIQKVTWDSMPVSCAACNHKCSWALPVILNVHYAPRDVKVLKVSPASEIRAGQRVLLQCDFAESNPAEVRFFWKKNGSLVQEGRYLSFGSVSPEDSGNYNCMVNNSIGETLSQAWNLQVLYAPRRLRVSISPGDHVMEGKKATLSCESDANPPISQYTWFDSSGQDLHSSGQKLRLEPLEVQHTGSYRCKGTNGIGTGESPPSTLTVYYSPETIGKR
In short: (§3)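 First, CD22 (2 μg/mL, PBS) was coated at 4° C overnight. Second, wells were blocked with PBS containing 2% BSA for 2 h at room temperature. Third, antibody and then HRP secondary were each incubated 2 h at 37° C. Finally, TMB colour was stopped with HCl.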

[6] = target: T3, murine CD22 protein (ACROBiosystems, …); assay: ELISA, coated murine CD22, 0.0001 nM Ab
In short: as §3

[7] = target: T4, human CD22, full length, on CHO-K1-human CD22 2C4 cells (human, UniProt P20273 20-847); assay: FACS, CHO-K1-human CD22 2C4 cells
T4 construct: Full-length human CD22 (NCBI NP_001762.2) stably transfected into CHO-K1
T4 sequence: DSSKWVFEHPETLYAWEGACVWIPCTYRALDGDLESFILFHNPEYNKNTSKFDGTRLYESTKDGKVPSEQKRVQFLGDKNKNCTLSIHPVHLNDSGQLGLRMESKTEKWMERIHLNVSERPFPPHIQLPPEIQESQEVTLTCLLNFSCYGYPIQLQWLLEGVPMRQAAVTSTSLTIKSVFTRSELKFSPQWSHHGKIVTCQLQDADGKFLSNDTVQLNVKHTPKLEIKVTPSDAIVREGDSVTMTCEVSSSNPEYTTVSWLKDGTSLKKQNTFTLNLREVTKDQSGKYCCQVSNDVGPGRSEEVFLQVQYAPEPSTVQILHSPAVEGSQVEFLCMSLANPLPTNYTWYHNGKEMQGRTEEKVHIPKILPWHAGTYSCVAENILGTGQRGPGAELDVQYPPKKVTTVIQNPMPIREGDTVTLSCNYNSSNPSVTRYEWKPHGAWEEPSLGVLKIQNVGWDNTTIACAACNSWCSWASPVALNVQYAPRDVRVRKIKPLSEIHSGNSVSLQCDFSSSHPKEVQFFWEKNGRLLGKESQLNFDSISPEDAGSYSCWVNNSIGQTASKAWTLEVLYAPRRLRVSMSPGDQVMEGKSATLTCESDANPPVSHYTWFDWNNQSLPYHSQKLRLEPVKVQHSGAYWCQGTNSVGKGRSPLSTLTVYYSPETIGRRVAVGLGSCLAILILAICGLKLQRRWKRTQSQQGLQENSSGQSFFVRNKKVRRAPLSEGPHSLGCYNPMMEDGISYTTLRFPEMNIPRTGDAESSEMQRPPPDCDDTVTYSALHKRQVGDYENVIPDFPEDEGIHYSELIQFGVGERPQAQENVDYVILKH
In short: as §2

[8] = target: T3, murine CD22 protein (ACROBiosystems, …); assay: ELISA, coated murine CD22, 10 nM Ab
In short: as §3

[9] = target: T3, murine CD22 protein (ACROBiosystems, …); assay: ELISA, coated murine CD22, 0.01 nM Ab
In short: as §3

[10] = target: T3, murine CD22 protein (ACROBiosystems, …); assay: ELISA, coated murine CD22, 0.001 nM Ab
In short: as §3

[11] = target: T3, murine CD22 protein (ACROBiosystems, …); assay: ELISA, coated murine CD22, 0.1 nM Ab
In short: as §3

[12] = target: T3, murine CD22 protein (ACROBiosystems, …); assay: ELISA, coated murine CD22, 0.00001 nM Ab
In short: as §3

Row | Binder | Proportion of chimeric antibody positive cells to B cells (%) [1] | Proportion of chimeric antibody positive cells to B cells (%) [2] | Proportion of chimeric antibody positive cells to B cells (%) [3] | EC50 [4] | Maximum mean fluorescence intensity [4] | OD450 [5] | OD450 [6] | EC50 [7] | Maximum mean fluorescence intensity [7] | OD450 [8] | OD450 [9] | OD450 [10] | OD450 [11] | OD450 [12]
1 | F1.161.7 (antibody, human IgG1, kappa, V domains shown, human-murine chimeric IgG1 kappa) VH: QVQLQQPGAELVKPGASVKMSCKASGYTFTSYWISWVKQRPGQGLEWIGDIYPGTGSSNYNEKFKSKATLTVDTSSSTAYMQLSSLTSEDSAVYYCARLKFEGIGYWGQGTTLTVSS VL: QIVLTQSPAIMSASLGEEITLTCSASSSVSYMHWFQQKSGTSPKLLIYSISNLASGVPSRFSGSGSGTFYSLTISSVEAEDAADYYCHQWSSYPWTFGGGTKLEIKR | 21% | 16% | 29% |  |  |  |  |  |  |  |  |  |  | 
2 | F2.127.11 (antibody, human IgG1, lambda, V domains shown, human-murine chimeric IgG1 lambda; VL name legible) VH: QVTLKESGPGILQPSQTLSLTCSFSGFSLSTFGMGVGWIRQPSGKGLEWLAHIWWDDDKHYNPALKSRLTISKDTSRNQVFLKIANVDTADGATYFCARDNWVSSLDYWGQGTSVIVSS VL: QPVITQSSSASFSLGASAELTCTLSSQHSTYTIEWYQQQPLKPPKYVMGLKKDGSHSTGDGIPDRFSGSSSGADRYLSISNIQPEDEAIYICGVSDTIKEQFVYVFGGGTKVTVLG | 21% | 20% | 22% |  |  |  |  |  |  |  |  |  |  | 
3 | F1.62.10 human-murine chimeric antibody (antibody, human IgG1, kappa, V domains shown, Chimeric, human IgG1 / kappa) VH: QVQLQQSGPELVKPGASVKISCKASGYEFSSIWMNWVKQRPGEGLEWIGRIFPGDGEINYNEKFKGKATLTADRSSTTAYMQLSSLTSEDSAVYFCAGWRIYYGTYGAMDYWGQGTSVTVSS VL: DIQMTQITSSLSASLGDRVTISCRASQDIGNYLNWYQQKPDGTVKLLIYYTSRLHSGVPSRFSGSGSRTDYSLTISNLQQEDIATYFCQQGNTLPWTFGGGTKLEIKR |  |  |  | 1.1 nM | 25600 MFI | 0.08 OD450 | 0.06 OD450 | 1.31 nM | 29200 MFI | 0.06 OD450 | 0.05 OD450 | 0.05 OD450 | 0.05 OD450 | 0.07 OD450
